Data: paper PMC9509318 (Nature Communications, 2022)

Legend:
Settings in all cases: both partners purified
[1] = molecular target: Pfs48/45-D2 + 3 (central and C-terminal domains) (Plasmodium falciparum, UniProt Q8I6T1); assay: crystal structure
[2] = molecular target: T1, Pfs48/45 full-length ectodomain (Plasmodium falciparum, UniProt Q8I6T1); assay: negative stain electron microscopy
[3] = molecular target: T1, Pfs48/45 full-length ectodomain; assay: SPR
[4] = molecular target: Pfs48/45-D3 (C-terminal 6-cys domain of Pfs48/45) (Plasmodium falciparum 3D7 …, UniProt Q8I6T1); assay: SPR
Pfs48/45-D3 (C-terminal 6-cys domain of Pfs48/45), sequence (Q8I6T1 291-428): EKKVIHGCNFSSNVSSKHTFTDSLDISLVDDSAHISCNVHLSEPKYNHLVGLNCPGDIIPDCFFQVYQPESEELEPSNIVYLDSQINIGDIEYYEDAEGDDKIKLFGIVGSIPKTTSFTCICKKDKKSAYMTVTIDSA

T1 sequence (Q8I6T1 27-427): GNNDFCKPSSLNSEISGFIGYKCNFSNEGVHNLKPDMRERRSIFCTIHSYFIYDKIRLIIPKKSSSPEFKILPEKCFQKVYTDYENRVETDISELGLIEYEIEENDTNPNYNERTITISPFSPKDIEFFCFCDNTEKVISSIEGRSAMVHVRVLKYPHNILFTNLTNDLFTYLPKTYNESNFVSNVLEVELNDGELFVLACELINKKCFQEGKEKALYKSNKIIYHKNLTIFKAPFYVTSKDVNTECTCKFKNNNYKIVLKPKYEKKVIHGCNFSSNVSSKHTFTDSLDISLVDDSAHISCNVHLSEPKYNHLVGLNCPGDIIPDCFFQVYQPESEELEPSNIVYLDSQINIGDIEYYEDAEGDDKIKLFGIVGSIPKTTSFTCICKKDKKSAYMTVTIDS
Pfs48/45-D2 + 3 (central and C-terminal domains), sequence (Q8I6T1 159-428): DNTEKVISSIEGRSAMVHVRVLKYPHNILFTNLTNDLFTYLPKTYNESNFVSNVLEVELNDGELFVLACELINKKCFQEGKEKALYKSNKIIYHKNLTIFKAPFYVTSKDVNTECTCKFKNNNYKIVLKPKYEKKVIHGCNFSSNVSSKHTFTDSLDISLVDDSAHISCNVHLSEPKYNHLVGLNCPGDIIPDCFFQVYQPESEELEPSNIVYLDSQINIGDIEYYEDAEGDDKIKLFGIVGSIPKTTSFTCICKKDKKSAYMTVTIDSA

B1: 10D8 Fab fragment (Fab, V domains shown)
VH: EVMLVESGGDLVKPGGSLKVSCAASGFTFSNYAMSWVRQTPEKRLEWVATISSGASYTHYPDSVKGRFTISRDNAKNTLYLQMSSLRSEDTAMYYCGRQVNRHDRALDAMDYWGQGTSVTVSP
VL: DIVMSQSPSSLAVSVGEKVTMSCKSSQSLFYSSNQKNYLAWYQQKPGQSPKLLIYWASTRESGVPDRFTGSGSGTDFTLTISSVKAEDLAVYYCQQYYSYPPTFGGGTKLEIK
notes: source: hybridoma cell line, purified using protein A/G, ficin cleaved to Fab
- binding result [1]: binds
- binding result [2]: binds

B2: 10D8 monoclonal antibody (antibody, V domains shown)
VH: B1 VH
VL: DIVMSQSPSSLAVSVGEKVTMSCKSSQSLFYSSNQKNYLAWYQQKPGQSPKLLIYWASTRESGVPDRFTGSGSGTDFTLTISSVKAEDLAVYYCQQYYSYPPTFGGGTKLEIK
notes: source: hybridoma cell line, purified using protein A/G
- binding result [3]: binds

B3: 32F3 monoclonal antibody (antibody, V domains shown)
VH: DVKLVESGGGLVKLGGSLKLSCAASGFTFSSYYMSWVRQTPEKRLELVAAINNNGGSTYYPDTVKGRFTISRDNAKNTLNLQMNSLKSEDTALYYCTRQHYGNLYFFDYWGQGTTLTVSS
VL: QIVLSQSPAILSASPGEKVTMTCRASSSVTYIHWYQQKPGSSPKPWIQATSSLASGVPARFSGSGSGTSYSLSISRVEAEDAATYYCQQWSSNPLTFGAGTKLELK
notes: as for B2
- Kd [4]: 5.2 nM
